Data published in patent US20240182580A1.

How the values were obtained:
[1] = target: CD74 on human tumour cell lines (human) (UniProt P04233); test: flow cytometry on ARD (MM) cells; Table 3 repeats Table 2
[2] = target: CD74 on human tumour cell lines (human) (UniProt P04233); test: flow cytometry on ARP-1 (MM) cells; Table 3 repeats Table 2
[3] = target: CD74 on human tumour cell lines (human) (UniProt P04233); test: flow cytometry on BDCM (AML) cells; Table 3 repeats Table 2
[4] = target: CD74 on human tumour cell lines (human) (UniProt P04233); test: flow cytometry on JVM-13 (CLL) cells; Table 3 repeats Table 2; design: Bmax: unit not given here
[5] = target: CD74 on human tumour cell lines (human) (UniProt P04233); test: flow cytometry on SUP-B15 (ALL) cells; Table 3 repeats Table 2; design: Bmax: unit not given here
[6] = target: CD74 on human tumour cell lines (human) (UniProt P04233); test: flow cytometry on ARD (MM) cells, one-site specific binding fit
[7] = target: CD74 on human tumour cell lines (human) (UniProt P04233); test: flow cytometry on RPMI-6666 (HL) cells; Table 3 repeats Table 2
[8] = target: CD74 on human tumour cell lines (human) (UniProt P04233); test: flow cytometry on RPMI-8226 (MM) cells; Table 3 repeats Table 2
[9] = target: CD74 on human tumour cell lines (human) (UniProt P04233); test: flow cytometry on SU-DHL-6 (NHL) cells; Table 3 repeats Table 2
[10] = target: CD74 on human tumour cell lines (human) (UniProt P04233); test: flow cytometry on BDCM (AML) cells, one-site specific binding fit
[11] = target: CD74 on human tumour cell lines (human) (UniProt P04233); test: flow cytometry on JVM-13 (CLL) cells, one-site specific binding fit
[12] = target: CD74 on human tumour cell lines (human) (UniProt P04233); test: flow cytometry on SUP-B15 (ALL) cells, one-site specific binding fit
[13] = target: CD74 on human tumour cell lines (human) (UniProt P04233); test: flow cytometry on RPMI-6666 (HL) cells, one-site specific binding fit
[14] = target: CD74 on human tumour cell lines (human) (UniProt P04233); test: flow cytometry on RPMI-8226 (MM) cells, one-site specific binding fit
[15] = target: CD74 on human tumour cell lines (human) (UniProt P04233); test: flow cytometry on SU-DHL-6 (NHL) cells, one-site specific binding fit
[16] = target: CD74 on human tumour cell lines (human) (UniProt P04233); test: flow cytometry on ARD (MM) cells, geometric MFI, one-site specific binding fit
[17] = target: CD74 on human tumour cell lines (human) (UniProt P04233); test: flow cytometry on ARP-1 (MM) cells, geometric MFI, one-site specific binding fit
[18] = target: CD74 on human tumour cell lines (human) (UniProt P04233); test: flow cytometry on BDCM (AML) cells, geometric MFI, one-site specific binding fit
[19] = target: CD74 on human tumour cell lines (human) (UniProt P04233); test: flow cytometry on JVM-13 (CLL) cells, geometric MFI, one-site specific binding fit
[20] = target: CD74 on human tumour cell lines (human) (UniProt P04233); test: flow cytometry on SUP-B15 (ALL) cells, geometric MFI, one-site specific binding fit
[21] = target: CD74 on human tumour cell lines (human) (UniProt P04233); test: flow cytometry on RPMI-6666 (HL) cells, geometric MFI, one-site specific binding fit
[22] = target: CD74 on human tumour cell lines (human) (UniProt P04233); test: flow cytometry on RPMI-8226 (MM) cells, geometric MFI, one-site specific binding fit
[23] = target: CD74 on human tumour cell lines (human) (UniProt P04233); test: flow cytometry on SU-DHL-6 (NHL) cells, geometric MFI, one-site specific binding fit

B1: anti-CD74 antibody without conjugation (anti-CD74 IgG of Examples 2 and 3) (antibody, V domains shown)
VH: QVQLVESGGGVVQPGRSLRLSCAASGFNFSDYGMHWVRQAPGKGLEWVAVIWYDGSISYYADSVKGRFTISRDNSKNTLYLQMNSLRAEDTAVYYCARGGTVEHGAVYGTDVWGQGTTVTVSS
VL: DIQMTQSPSSVSASVGDRVTITCRASQGIGSWLAWYQQKPGKAPKLLIYAADRLQSGVPSRFSGSGSGTDFTLTISSLQPEDFATYYCQQYHTYPLTFGGGTKVEIK
Bmax [1]: 190
Kd [1]: 2.6 nM
Bmax [2]: 341
Bmax [3]: 3060
Kd [3]: 4.5 nM
Bmax [4]: 447
Kd [4]: 2.5 nM
Bmax [5]: 680
Kd [5]: 3.5 nM
Kd [6]: 2.6 nM
Bmax [7]: 3880
Kd [7]: 2.3 nM
Bmax [8]: 119
Kd [8]: 3.6 nM
Bmax [9]: 1560
Kd [9]: 2 nM
Kd [10]: 4.5 nM
Kd [11]: 2.5 nM
Kd [12]: 3.5 nM
Kd [13]: 2.3 nM
Kd [14]: 3.6 nM
Kd [15]: 2 nM
Bmax [16]: 190
Bmax [17]: 341
Bmax [18]: 3060
Bmax [19]: 447
Bmax [20]: 680
Bmax [21]: 3880
Bmax [22]: 119
Bmax [23]: 1560
